Measured values: patent US20150231240A1, “ANTI-C16ORF54 ANTIBODIES AND METHODS OF USE THEREOF” (priority 2012, published 2015)

What was measured:
human C16orf54 [1] = target: T1, human C16orf54 (human, UniProt Q6UWD8 1-224); assay: flow cytometry, WSU-FSCCL lymphoma cells (endogenous C16orf54), 3 repeats
T1 construct: also called huC16orf54; hC16orf54
T1 sequence: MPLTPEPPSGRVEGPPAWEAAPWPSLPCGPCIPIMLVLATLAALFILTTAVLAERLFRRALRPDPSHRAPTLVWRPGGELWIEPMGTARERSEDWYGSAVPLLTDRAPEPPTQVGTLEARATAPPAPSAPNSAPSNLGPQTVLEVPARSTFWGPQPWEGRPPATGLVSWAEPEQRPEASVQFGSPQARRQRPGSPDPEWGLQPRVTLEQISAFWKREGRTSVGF

[2] = target: T2, cynomolgus monkey C16orf54 (cynomolgus monkey (Macaca fascicularis), UniProt Q6UWD8 1-224 (human entry)); assay: flow cytometry, 10 ug/ml antibody, F279-cyno-C16orf54 cells
T2 construct: also called cyno C16orf54; cyno-C16orf54
T2 chain: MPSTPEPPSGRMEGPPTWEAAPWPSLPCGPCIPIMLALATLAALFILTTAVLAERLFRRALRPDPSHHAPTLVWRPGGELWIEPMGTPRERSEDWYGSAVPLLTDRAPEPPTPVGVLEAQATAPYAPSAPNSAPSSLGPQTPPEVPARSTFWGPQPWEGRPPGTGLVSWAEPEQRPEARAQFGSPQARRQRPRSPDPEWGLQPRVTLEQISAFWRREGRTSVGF
Outline: (§1)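 Sarcoma cells transfected with human or cyno C16orf54 were Fc-blocked, stained with antibody for 1 h at 4° C., then PE anti-mouse IgG Fcγ secondary 30 min at 4° C., with TO-PRO-3 viability dye. Value is live-cell PE median fluorescence divided by that of IgG isotype control.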

human C16orf54 [3] = target: T1, human C16orf54; assay: flow cytometry titration, KG1 cells (endogenous human C16orf54)
human C16orf54 [4] = target: T1, human C16orf54; assay: flow cytometry, 10 ug/ml antibody, D42M1-huC16orf54 cells
Outline: as §1

[5] = target: T3, N-terminal 32 amino acids of huC16orf54 coupled to biotin (human, biotin at the C-terminus); assay: biolayer interferometry (OctetQK384), purified antibody on streptavidin sensors coated with the biotinylated peptide
T3 construct: also called 32 amino acid N-terminal extracellular domain
T3 peptide: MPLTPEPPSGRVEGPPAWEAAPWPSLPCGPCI
Description: Affinity measurements of purified anti-huC16orf54 antibodies were carried out on the OctetQK384® sytem (ForteBio). After coating streptavidin sensors with the N-terminal 32 amino acids of huC16orf54 coupled to biotin at the C-terminus, association and dissociation of purified anti-huC16orf54 antibodies was monitored. KD values were derived using ForteBio's software.

human C16orf54 [6] = target: T1, human C16orf54; assay: flow cytometry, OCI-AML3 leukemia cells (endogenous C16orf54), 3 repeats
[7] = target: T4, C16orf54 in cells and human tissues (Homo sapiens, UniProt Q6UWD8); assay: Human C16orf54 immunohistochemistry (IHC); type: binding
T4 construct: from tissue; host or cells: isolated hematological tumour cells (lymphoma, AML, CLL) and human tissues, OCT-embedded frozen sections
T4 sequence (Q6UWD8 1-224): T1 sequence
Description: Anti-C16orf54 antibodies were used to detect C16orf54 expression as analyzed by immunohistochemistry (IHC). The transfected cell lines (5×10^7) and isolated hematological diseased cells were washed in PBS, centrifuged at 300 g for 10 minutes and the resultant cell pellets embedded and frozen in Tissue-Tek OCT compound (commercially available, e.g., Sakura Finetek USA, Inc., Torrence, Calif.; Fisher Scientific USA). 8 μm cryostat sections of the OCT embedded cells and human tissues were post-fixed in a 75% ethanol, 25% acetone mixture for 5 minutes followed by washing in PBS. The slides were then stained with exemplary primary anti-C16orf54 antibodies on a Dako Autostainer using standard avidin-biotin complex (ABC) IHC procedures. In some experiments, the endogenous peroxidase activity was blocked using Bloxall reagent (Vector SP-6000) for 5 minutes followed by avidin/biotin blocking reagents (Vector SP-2001) to block endogenous biotin within tissues. A pre-incubation with a protein blocker (Dako X0909) was performed followed by the primary antibodies incubation for 1 hour at room temperature. In some experiments, primary antibody 7-1C was diluted to a final concentration of 5 μg/ml and primary antibody 67-7A was diluted to a final concentration of 10 μg/ml using antibody diluent (Dako S3022). The control antibody used was a pan-mouse IgG antibody (Life Technologies 08-6599). In some experiments, after washing in PBS, the slides were incubated with a biotinylated horse anti-mouse antibody 1:200 (Vector BA-2001) for 30 minutes followed by a universal streptavidin-peroxidase conjugate (ABC-HRP Vector PK-6100) for 30 minutes. Diaminobenzedine was used as the chromagen (Sigma D5909) and the slides were counterstained with Mayers hematoxylin for 5 minutes, followed by dehydration and coverslipping.

B1: R29-7-1C (antibody, V domains shown)
VH: DVQLQESGPGLVKPSQSLSLTCTVTGYSITSDYAWNWIRQFPGNKLEWMGYISYSGSIRYNPSLKSRISITRDTSKNQFFLQLNSVTTEDTATYYCAREKYDNYYYAMDYWGQGTSVTVSS
VL: DIVMSQSPSSLAVSVGEKVTLSCKSSQNLLYSTNQKNYLAWYQQKPGQSPKLLIYWASTRESGVPDRFTGSGSGTDFTLTISSVKAEDLAVYYCQQYYSYRTFGGGTKLEIK
notes: Murine monoclonal IgG2a from a hybridoma
Average MFI fold change relative to isotype control (human C16orf54 [1]): 13.7 fold | Median fold change relative to IgG control [2]: 53.7 fold | EC50 (human C16orf54 [3]): 0.3 nM | Median fold change relative to IgG control (human C16orf54 [4]): 205 fold | Kd [5]: 1.1 nM | koff [5]: 7.95e-05 s⁻¹ | kon [5]: 68100 M⁻¹ s⁻¹ | Average MFI fold change relative to isotype control (human C16orf54 [6]): 3 fold

B2: R29-67-7A: murine anti-C16orf54 monoclonal antibody, IgG2a; VH SEQ ID NO: 12, VL SEQ ID NO: 14 (antibody, V domains shown)
VH: MRVLILLWLFTAFPGILSDVQLQESGPGLVKPSQSLSLTCTVTGYSITSDYAWNWIRQFPGNKLEWMGYINYSGRTRYNPSLNSRISLTRDTSTNQFFLQLNSVTTEDTATYYCARENYDYEFYAMDYWGQGTSVTVSS
VL: MESQAQVLMLLLLWVSGTCGDIVMSQSPSSLAVSVGEKVTMSCKSSQNLLYSSNQKNYLAWYQQKPGQSPKLLIYWASTRESGVPDRFTGSGSGTDFTLTISSVKAEDLAVYYCQQYYIYRTFGGGTKLEIK
modifications: R29-67-7A heavy chain variable region; R29-67-7A light chain variable region
C16orf54 (67-7A) IHC ([7]; AML sample AML-183L): Positive | C16orf54 (67-7A) IHC ([7]; AML sample AML-205L): Positive | C16orf54 (67-7A) IHC ([7]; AML sample AML-211L): Positive | C16orf54 (67-7A) IHC ([7]; AML sample AML-213L): Positive | C16orf54 (67-7A) IHC ([7]; CLL sample CLL-408L): Positive | C16orf54 (67-7A) IHC ([7]; CLL sample CLL-BC042): Positive | C16orf54 (67-7A) IHC ([7]; CLL sample CLL-BC043): Positive | C16orf54 (67-7A) IHC ([7]; CLL sample CLL-UF048): Positive | C16orf54 (67-7A) IHC ([7]; Lymphoma sample MD00402): Positive | C16orf54 (67-7A) IHC ([7]; Lymphoma sample OD39986): Positive | C16orf54 (67-7A) IHC ([7]; Lymphoma sample OD41079): Positive | C16orf54 (67-7A) IHC ([7]; Lymphoma sample OD41411): Positive | C16orf54 (67-7A) IHC ([7]; Lymphoma sample WD3517): Positive | IHC staining of hematological tumors ([7]; frozen sections, 10 μg/ml primary antibody): confirm the C16orf54 IHC expression in hematological tumors
